# Data taken from US7452992B2, “Heterocyclic compounds as CCR5 antagonists” (SmithKline Beecham Corporation, priority 2002, dated 2008).
# Molecular target: T1, human CCR5 chemokine receptor (Homo sapiens, UniProt P51681)
# T1 construct: host or cells: Chinese Hamster Ovary (CHO) cells; membranes prepared from the cell pellet
# Experiment: CC-Chemokine Receptor-5 Binding by Scintillation Proximity Assay (CCR5 SPA), displacement of 125I-MIP1α
# Details: standard compound, 14-point concentration-response curve in triplicate, starting concentration 1 μM
# Experimental: CC-Chemokine Receptor-5 Binding by Scintillation Proximity Assay (CCR5 SPA)
# Scintillation Proximity Assay for the Human CC-Chemokine Receptor, CCR-5
# This protocol describes a high-throughput screen using SPA binding to identify compounds that inhibit binding of ^125I-MIP1α to the human CCR5 chemokine receptor.
# Human CCR5 receptors were expressed in Chinese Hamster Ovary (CHO) cells, registration # 12025. Cells were grown in suspension and a 50 to 80 ml CCR5 cell pellet was prepared. […]
# The saturation curve binding experiment is performed by adding varying amounts of [^125I]MIP1α (0-8.5 nM to membranes and beads in concentrations chosen from the optimal protein/bead ratio. The data is analyzed using a non-linear curve-fitting program. The Kd and Bmax are derived from the curve. […]
# T1 sequence (P51681 whole entry): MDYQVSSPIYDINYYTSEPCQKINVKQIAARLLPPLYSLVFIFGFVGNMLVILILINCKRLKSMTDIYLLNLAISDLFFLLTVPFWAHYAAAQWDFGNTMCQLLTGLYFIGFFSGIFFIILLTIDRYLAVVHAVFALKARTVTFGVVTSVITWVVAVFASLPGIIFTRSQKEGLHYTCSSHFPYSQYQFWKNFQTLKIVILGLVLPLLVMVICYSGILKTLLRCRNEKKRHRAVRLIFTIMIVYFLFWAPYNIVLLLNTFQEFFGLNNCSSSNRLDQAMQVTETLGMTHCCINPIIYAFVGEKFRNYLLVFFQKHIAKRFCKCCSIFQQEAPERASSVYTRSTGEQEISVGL
substance,measurement,value
"MIP1α: natural chemokine ligand of CCR5, used as standard compound in the SPA binding assay",average historical pKi,7.6
